The values that follow are results of earlier work, collected in US6770020B2 (priority 2001, dated 2004).

The conditions of this series: cited from earlier work.

“Gd-DTPA-hydroxypropylpoly(D-lysine) [Gd-DTPA-pdl]”: the membrane permeability entry is on record as “membrane impermeable”.
